This is an account of results in patent publication US20170088610A1 (RINAT NEUROSCIENCE, published 2017).

For assay [1], the target named is T1, human nerve growth factor (human, UniProt P01138 122-241).
T1 construct: Immobilised on CM5 chips for BIAcore, soluble in neuron survival assays; also called human NGF; hNGF
The experiment in a line: BIAcore SPR screen, Fab over immobilised human NGF; KD calculated from koff with kon 4e4 M-1s-1. As for the experimental part:
(§1) A screening BIAcore assay was optimized to determine the affinity of Fab clones from libraries. Supernatants of small culture lysates were injected at […] for 2 min. Dissociation times of 10 to 15 minutes were used for determination of a single exponential dissociation rate (koff) using BIAevaluation software. […] Clones showing improved (slower) koff values were expressed at large scale and full kinetic parameters, kₒₙ and koff, were determined on purified protein.
(§2) 20-80 clones from each small library were screened using BIAcore analysis as described herein. Samples were simultaneously analyzed by BIAcore for binding affinity to NGF in one channel of the BIAcore chip and for presence of Fab by binding to a penta-histag antibody in another channel of the sensor chip, to detect the his tag at the C terminus of the heavy chain. Clones that expressed protein were classified as having the same affinity, worse affinity, better affinity or no binding, using koff to classify: The results of this analysis are shown in Table 5.

Assay [2] deals with T1, human nerve growth factor. The experiment in a line: BIAcore SPR screen, Fab over immobilised human NGF. As for the experimental part:
as §1, §2

T1 sequence (P01138 122-241 limits assumed): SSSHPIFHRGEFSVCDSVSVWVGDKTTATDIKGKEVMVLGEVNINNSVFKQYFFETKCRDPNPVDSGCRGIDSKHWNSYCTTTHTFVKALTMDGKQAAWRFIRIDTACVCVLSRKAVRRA

B1: 8L2-6D5 Fab with CDR H3 mutation D109G (Fab, V domains shown)
VH: QVQLQESGPGLVKPSETLSLTCTVSGFSLIGYDINWIRQPPGKGLEWIGMIWGDGTTDYNSALKSRVTISKDTSKNQFSLKLSSVTAADTAVYYCARGGYYYGTSYYFGYWGQGTLVTVS
VL: DIQMTQSPSSLSASVGDRVTITCRASQDISNHLNWYQQKPGKAPKLLIYYISRFHSGVPSRFSGSGSGTDFTFTISSLQPEDIATYYCQQSKTLPYTFGQGTKLEIKR
notes: See note of m8
As for B1, in assay [1], the Kd is 25 nM. Besides, the koff in assay [2] worked out at 0.001 s⁻¹.

B2: 8L2-6D5 Fab with CDR H3 mutation Y110K (Fab, V domains shown)
VH: QVQLQESGPGLVKPSETLSLTCTVSGFSLIGYDINWIRQPPGKGLEWIGMIWGDGTTDYNSALKSRVTISKDTSKNQFSLKLSSVTAADTAVYYCARGGYYYGTSYYFDKWGQGTLVTVS
VL: DIQMTQSPSSLSASVGDRVTITCRASQDISNHLNWYQQKPGKAPKLLIYYISRFHSGVPSRFSGSGSGTDFTFTISSLQPEDIATYYCQQSKTLPYTFGQGTKLEIKR
notes: See note of m8
With B2, the Kd in assay [1] was 35 nM. This molecule yielded a koff in assay [2] of 0.0014 s⁻¹.

B3: 8L2-6D5 Fab with CDR H3 mutation Y106R (Fab, V domains shown)
VH: QVQLQESGPGLVKPSETLSLTCTVSGFSLIGYDINWIRQPPGKGLEWIGMIWGDGTTDYNSALKSRVTISKDTSKNQFSLKLSSVTAADTAVYYCARGGYYYGTSRYFDYWGQGTLVTVS
VL: DIQMTQSPSSLSASVGDRVTITCRASQDISNHLNWYQQKPGKAPKLLIYYISRFHSGVPSRFSGSGSGTDFTFTISSLQPEDIATYYCQQSKTLPYTFGQGTKLEIKR
notes: See note of m8
Consider B3, for which the Kd in assay [1] is 40 nM. In addition, the koff in assay [2] was found to be 0.0016 s⁻¹.

B4: 8L2-6D5 Fab with CDR H3 mutation Y100L (Fab, V domains shown)
VH: QVQLQESGPGLVKPSETLSLTCTVSGFSLIGYDINWIRQPPGKGLEWIGMIWGDGTTDYNSALKSRVTISKDTSKNQFSLKLSSVTAADTAVYYCARGGLYYGTSYYFDYWGQGTLVTVS
VL: DIQMTQSPSSLSASVGDRVTITCRASQDISNHLNWYQQKPGKAPKLLIYYISRFHSGVPSRFSGSGSGTDFTFTISSLQPEDIATYYCQQSKTLPYTFGQGTKLEIKR
notes: See note of m8
With B4, in assay [1], the Kd was 30 nM. The koff in assay [2] stood at 0.0012 s⁻¹.

B5: 8L2-6D5 Fab with CDR H3 mutation Y110R (Fab, V domains shown)
VH: QVQLQESGPGLVKPSETLSLTCTVSGFSLIGYDINWIRQPPGKGLEWIGMIWGDGTTDYNSALKSRVTISKDTSKNQFSLKLSSVTAADTAVYYCARGGYYYGTSYYFDRWGQGTLVTVS
VL: DIQMTQSPSSLSASVGDRVTITCRASQDISNHLNWYQQKPGKAPKLLIYYISRFHSGVPSRFSGSGSGTDFTFTISSLQPEDIATYYCQQSKTLPYTFGQGTKLEIKR
notes: See note of m8
As for B5, the Kd in assay [1] is 40 nM. In addition, in assay [2], the koff was determined as 0.0016 s⁻¹.

B6: 8L2-6D5 Fab with CDR H3 mutation F108W (Fab, V domains shown)
VH: QVQLQESGPGLVKPSETLSLTCTVSGFSLIGYDINWIRQPPGKGLEWIGMIWGDGTTDYNSALKSRVTISKDTSKNQFSLKLSSVTAADTAVYYCARGGYYYGTSYYWDYWGQGTLVTVS
VL: DIQMTQSPSSLSASVGDRVTITCRASQDISNHLNWYQQKPGKAPKLLIYYISRFHSGVPSRFSGSGSGTDFTFTISSLQPEDIATYYCQQSKTLPYTFGQGTKLEIKR
notes: See note of m8
For the molecule B6, the Kd in assay [1] was 30 nM. Moreover, the koff in assay [2] stood at 0.00122 s⁻¹.

B7: 8L2-6D5 Fab with CDR H3 mutation Y106M (Fab, V domains shown)
VH: QVQLQESGPGLVKPSETLSLTCTVSGFSLIGYDINWIRQPPGKGLEWIGMIWGDGTTDYNSALKSRVTISKDTSKNQFSLKLSSVTAADTAVYYCARGGYYYGTSMYFDYWGQGTLVTVS
VL: DIQMTQSPSSLSASVGDRVTITCRASQDISNHLNWYQQKPGKAPKLLIYYISRFHSGVPSRFSGSGSGTDFTFTISSLQPEDIATYYCQQSKTLPYTFGQGTKLEIKR
notes: See note of m8
B7: the Kd in assay [1] is 67 nM. The koff in assay [2] was determined as 0.0027 s⁻¹.

B8: 8L2-6D5 Fab with CDR H3 mutation S105A (Fab, V domains shown)
VH: QVQLQESGPGLVKPSETLSLTCTVSGFSLIGYDINWIRQPPGKGLEWIGMIWGDGTTDYNSALKSRVTISKDTSKNQFSLKLSSVTAADTAVYYCARGGYYYGTAYYFDYWGQGTLVTVS
VL: DIQMTQSPSSLSASVGDRVTITCRASQDISNHLNWYQQKPGKAPKLLIYYISRFHSGVPSRFSGSGSGTDFTFTISSLQPEDIATYYCQQSKTLPYTFGQGTKLEIKR
notes: See note of m8
As for B8, the equilibrium dissociation constant (Kd) in assay [1] was 13 nM. Besides, the koff in assay [2] was 0.00051 s⁻¹.

B9: 8L2-6D5 Fab with CDR H3 mutation D109N (Fab, V domains shown)
VH: QVQLQESGPGLVKPSETLSLTCTVSGFSLIGYDINWIRQPPGKGLEWIGMIWGDGTTDYNSALKSRVTISKDTSKNQFSLKLSSVTAADTAVYYCARGGYYYGTSYYFNYWGQGTLVTVS
VL: DIQMTQSPSSLSASVGDRVTITCRASQDISNHLNWYQQKPGKAPKLLIYYISRFHSGVPSRFSGSGSGTDFTFTISSLQPEDIATYYCQQSKTLPYTFGQGTKLEIKR
notes: See note of m8
Take B9: the Kd in assay [1] is 37 nM. Further, the koff in assay [2] stood at 0.0015 s⁻¹.

B10: 8L2-6D5 Fab with CDR H3 mutation Y107F (Fab, V domains shown)
VH: QVQLQESGPGLVKPSETLSLTCTVSGFSLIGYDINWIRQPPGKGLEWIGMIWGDGTTDYNSALKSRVTISKDTSKNQFSLKLSSVTAADTAVYYCARGGYYYGTSYFFDYWGQGTLVTVS
VL: DIQMTQSPSSLSASVGDRVTITCRASQDISNHLNWYQQKPGKAPKLLIYYISRFHSGVPSRFSGSGSGTDFTFTISSLQPEDIATYYCQQSKTLPYTFGQGTKLEIKR
notes: See note of m8
As for B10, the Kd in assay [1] was 35 nM. This molecule showed a koff in assay [2] of 0.0014 s⁻¹.

B11: 8L2-6D5 Fab with CDR H3 mutation Y110T (Fab, V domains shown)
VH: QVQLQESGPGLVKPSETLSLTCTVSGFSLIGYDINWIRQPPGKGLEWIGMIWGDGTTDYNSALKSRVTISKDTSKNQFSLKLSSVTAADTAVYYCARGGYYYGTSYYFDTWGQGTLVTVS
VL: DIQMTQSPSSLSASVGDRVTITCRASQDISNHLNWYQQKPGKAPKLLIYYISRFHSGVPSRFSGSGSGTDFTFTISSLQPEDIATYYCQQSKTLPYTFGQGTKLEIKR
notes: See note of m8
On to B11, for which the Kd in assay [1] was 42 nM. The koff in assay [2] turned out to be 0.0017 s⁻¹.

B12: 8L2-6D5 Fab with CDR H3 mutation Y100R (Fab, V domains shown)
VH: QVQLQESGPGLVKPSETLSLTCTVSGFSLIGYDINWIRQPPGKGLEWIGMIWGDGTTDYNSALKSRVTISKDTSKNQFSLKLSSVTAADTAVYYCARGGRYYGTSYYFDYWGQGTLVTVS
VL: DIQMTQSPSSLSASVGDRVTITCRASQDISNHLNWYQQKPGKAPKLLIYYISRFHSGVPSRFSGSGSGTDFTFTISSLQPEDIATYYCQQSKTLPYTFGQGTKLEIKR
notes: See note of m8
Turning to B12, the Kd in assay [1] was 27 nM. For the same molecule, the koff in assay [2] was 0.0011 s⁻¹.

B13: 8L2-6D5 Fab with CDR H3 mutation G103A (Fab, V domains shown)
VH: QVQLQESGPGLVKPSETLSLTCTVSGFSLIGYDINWIRQPPGKGLEWIGMIWGDGTTDYNSALKSRVTISKDTSKNQFSLKLSSVTAADTAVYYCARGGYYYATSYYFDYWGQGTLVTVS
VL: DIQMTQSPSSLSASVGDRVTITCRASQDISNHLNWYQQKPGKAPKLLIYYISRFHSGVPSRFSGSGSGTDFTFTISSLQPEDIATYYCQQSKTLPYTFGQGTKLEIKR
notes: A103 is the E3 residue, so it is kept; See note of m8
Regarding B13, the Kd in assay [1] was 4 nM. The molecule also returned a koff in assay [2] of 0.00016 s⁻¹.

B14: 8L2-6D5 Fab with CDR H3 mutation S105T (Fab, V domains shown)
VH: QVQLQESGPGLVKPSETLSLTCTVSGFSLIGYDINWIRQPPGKGLEWIGMIWGDGTTDYNSALKSRVTISKDTSKNQFSLKLSSVTAADTAVYYCARGGYYYGTTYYFDYWGQGTLVTVS
VL: DIQMTQSPSSLSASVGDRVTITCRASQDISNHLNWYQQKPGKAPKLLIYYISRFHSGVPSRFSGSGSGTDFTFTISSLQPEDIATYYCQQSKTLPYTFGQGTKLEIKR
notes: See note of m8
Consider B14, for which the Kd in assay [1] is 16 nM. This molecule also came in with a koff in assay [2] of 0.00064 s⁻¹.

B15: 8L2-6D5 Fab with CDR H3 mutation T104S (Fab, V domains shown)
VH: QVQLQESGPGLVKPSETLSLTCTVSGFSLIGYDINWIRQPPGKGLEWIGMIWGDGTTDYNSALKSRVTISKDTSKNQFSLKLSSVTAADTAVYYCARGGYYYGSSYYFDYWGQGTLVTVS
VL: DIQMTQSPSSLSASVGDRVTITCRASQDISNHLNWYQQKPGKAPKLLIYYISRFHSGVPSRFSGSGSGTDFTFTISSLQPEDIATYYCQQSKTLPYTFGQGTKLEIKR
notes: See note of m8; also called T1045 (so in the source)
B15: the Kd in assay [1] is 55 nM. Besides, the koff in assay [2] is 0.0022 s⁻¹.

B16: 8L2-6D5 Fab with CDR H3 mutation Y106T (Fab, V domains shown)
VH: QVQLQESGPGLVKPSETLSLTCTVSGFSLIGYDINWIRQPPGKGLEWIGMIWGDGTTDYNSALKSRVTISKDTSKNQFSLKLSSVTAADTAVYYCARGGYYYGTSTYFDYWGQGTLVTVS
VL: DIQMTQSPSSLSASVGDRVTITCRASQDISNHLNWYQQKPGKAPKLLIYYISRFHSGVPSRFSGSGSGTDFTFTISSLQPEDIATYYCQQSKTLPYTFGQGTKLEIKR
notes: See note of m8
As for B16, the Kd in assay [1] is 50 nM. In assay [2], this molecule had a koff of 0.002 s⁻¹.

B17: 8L2-6D5 Fab with CDR H3 mutation Y110S (Fab, V domains shown)
VH: QVQLQESGPGLVKPSETLSLTCTVSGFSLIGYDINWIRQPPGKGLEWIGMIWGDGTTDYNSALKSRVTISKDTSKNQFSLKLSSVTAADTAVYYCARGGYYYGTSYYFDSWGQGTLVTVS
VL: DIQMTQSPSSLSASVGDRVTITCRASQDISNHLNWYQQKPGKAPKLLIYYISRFHSGVPSRFSGSGSGTDFTFTISSLQPEDIATYYCQQSKTLPYTFGQGTKLEIKR
notes: See note of m8
Take B17: the Kd in assay [1] is 37 nM. For the same molecule, the koff in assay [2] was 0.0015 s⁻¹.

B18: 8L2-6D5 Fab with CDR H3 mutation Y101W (Fab, V domains shown)
VH: QVQLQESGPGLVKPSETLSLTCTVSGFSLIGYDINWIRQPPGKGLEWIGMIWGDGTTDYNSALKSRVTISKDTSKNQFSLKLSSVTAADTAVYYCARGGYWYGTSYYFDYWGQGTLVTVS
VL: DIQMTQSPSSLSASVGDRVTITCRASQDISNHLNWYQQKPGKAPKLLIYYISRFHSGVPSRFSGSGSGTDFTFTISSLQPEDIATYYCQQSKTLPYTFGQGTKLEIKR
notes: W101 is the E3 residue, so it is kept; See note of m8
Turning to B18, the Kd in assay [1] was 14 nM. The molecule also returned a koff in assay [2] of 0.00056 s⁻¹.
